Laboratory results published in patent US20230183352A1 (published 2023).
Read-outs that look alike come from different tables or passages of the source.

Legend:
[1] = molecular target: T1, Claudin 18.2 (CLDN18.2), expressed on CHOS-CLDN 18.2 / HEK293-CLDN 18.2 / HCC827-CLDN 18.2 cells (human, UniProt P56856 1-261); test: ELISA
[2] = molecular target: T1, Claudin 18.2 (CLDN18.2), expressed on …; test: ELISA; remark: listed apart in the source

Binder	EC50 [1]	EC50 [2]
QP14451442 (antibody, V domains shown) VH: QVQLVQSGAEVKKPGASVKVSCKASGYAFSSYWMNWVRQAPGQGLEWIGQIYPGNGDTTYNGKFKGRVTMTADKSTSTVYMELSSLRSEDTAVYFCARFVKGNAMDYWGQGTLVTVSS VL: DIVMTQSPDSLAVSLGERATISCKSSQSLLNSGNQKNYLTWYQQKPGQPPKMLIYWASTRESGVPDRFSGSGSGIDFTLTISSVQAEDVAVYYCQNAYSYPFTFGQGTKLEIKR	0.0977 µg/mL	
QP14451440 (antibody, V domains shown) VH: QVQLVQSGAEVKKPGASVKVSCKASGYAFSSYWMNWVRQAPGQGLEWIGQIYPGNGDTTYNGKFKGRVTMTADKSTSTVYMELSSLRSEDTAVYFCARFVKGNAMDYWGQGTLVTVSS VL: DIVMTQSPDSLAVSLGERATISCKSSQSLLNSGNQKNYLTWYQQKPGQPPKLLIYWASTRESGVPDRFSGSGSGTDFTLTISSLQAEDVAVYYCQNAYSYPFTFGQGTKLEIKR	0.0995 µg/mL	

Other lines, results leading:

EC50 [1]	EC50 [2]	Binder
	0.0783 µg/mL	QP14641461 (antibody, V domains shown) VH: EVQLVQSGAEVKKPGASVKVSCKASGYTFTSYIMHWVRQAPGQGLEWIGYINPYNDGTKYNEKFKGRVTLTRDKSTSTVYMELSSLRSEDTAVYYCARLGFTTRNAMDYWGQGTLVTVSS VL: DIVMTQSPDSLAVSLGERATINCKSSQSLLNSGNQKNYLAWYQQKPGQPPKLLIYGASTRESGVPDRFTGSGSGTDFTLTISSLQAEDVAVYYCQNDHSYPFTFGQGTKLEIKR
	0.0904 µg/mL	QP14651460 (antibody, V domains shown) VH: EVQLVQSGAEVKKPGASVKVSCKASGYTFTSYIMHWVRQAPGQGLEWIGYINPYNDGTKYNEKFKGRVTLTSDKSTSTVYMELSSLRSEDTAVYYCARLGFTTRNAMDYWGQGTLVTVSS VL: DIVMTQSPDSLAVSLGERATINCKSSQSLLNSGNQKNYLAWYQQKPGQPPKLLIYGASTRESGVPDRFSGSGSGTDFTLTISSLQAEDVAVYYCQNDHSYPFTFGQGTKLEIKR
